# The DeepSol protein solubility set
# Assay: soluble on expression in E. coli; label from the status in PepcDB or PDB records
row,Sequence,soluble on expression in E. coli
1,MATMLSRYFLLTVAALFAQSASAIEVLTSIKPIQMITYELMLGTGTPDVLLPSGASPHDYALRPSDVKRIQQADLVIWFGQDLEPFMSKLLEGRTSALTLSQVPNLALREYGEEEQHEHDGHHHGHYDPHFWLGIGPVGQVASAITAKLIELDADQQQQYQDNLVRFLANLAEQDNTIGEKLKPVTTVPYYVFHDAYGYFEQHFALNNLGHFTVSPERKPGAKTLIAIKKTLNDQLAKCVFSEPQFEPAIIETVVRGTSAKIGVLDPLGISIELQAGSYFAFLNSLAESYYACLSQS,not soluble
2,MGSDKIHHHHHHMSNSLKASTAGLAIVDKSRQRLGWTKTSTARWWQDAHTSRATLRRFWQGDRIQREIFIAICQAVGIGNWEAIAELSNADLESTVVIPTPYLDCNEAPDLESFYGRNQELAQLEEWLTSQNCKLVTINGIAGIGKTALALALVDRIQLKFDCLIWKSLQTSPSLISLLNSLLNSFEQGVVVQNIQQGTAQLIQQLQKHHCLLILDGLEAIFSQPEDLSYGQFIQQLSRERHQSCILISSREQPNNIETNTKIYHCLNLKGLPKTEAVELLQSRGFTGKELGLSVLIQLYRGNPLVLKLVTPLIQSVFGGNVAAFLSQHTLIVGDRLRVILKQQFEQLSGLEQDILYWLAIWQEPVSFSRLQTHLLISVDPAMVLEGIVALERRSLLEKWVSDYELSFTLQPLVMKVVTDELIEHTVQEIDRVVQSHDIRHFQILRTHWLLRPGTDDIAGDRILTQLWKKLWHLYGATLPQIFNQILLLLKSQSPLAMGYIGSNVAILSGIDLL,not soluble
3,MGSDKIHHHHHHVEDLKNLTNQAVEKQPEIVKRFNEMIDSQHLSHAYLLTGAGGIGKKDVAQWVAMRLFCIDLQGSMPCGECEECTRIMSGQHPDVVEIAPDGQSIKVEQVRFLKSEFSKSGVEGARKVFIIEQANKMTTSAANSLLKFIEEPSGEVTAFLLAENRSLMLPTIVSRTEIIELKPLPKDRLIKELTEQNIAETDARILTRLTNDMSEIQTLVDNNWILDAHKALEKWFITATTGDITAFVDVQTRVMALAKDRFYQEKILDLMMLYAMDLLELKFDQETITYEANRRQLQELADQTNVRQLLAVADVLLPLKHQLSQNLNFQSVVEKATIKICNIFKMRGR,not soluble
4,SADAFSLQRVLETFRSSLSENKEVYIKYYIAGWQELVSFMNSLGNVFSFISKDVVSKIQILENFLSGENGSNYVTIQSMVKYELENDLVDLTKRGSHPESGCRTLLRLHRALRWLELFLERLRTSTEDSKTSVMCSDAYNESLANHHPWLIRKAVGVAFCALPGRETFFDVMNAGDHTQVVALLGESLPLIAEVYQITEDLYAKNNLLELP,soluble
5,MGSDKIHHHHHHMKYMIGIDGGGTKTEAIAFDKDGNELVRATSGFGNILIDFEEALVHIMEAIDQCQKGVLNEHCVCICLGLAGVSGVNTNELTLRLKKKYGTPIEVFNDAMIAHAAVLKGKDGILTIGGTGTICLGKKGEVYEYSGGWGHILGDAGSGYWIGLQALKRMANQLDQGIRLCPLSLRIQDEFQLLTASHIKRLVYRSSKDKVAAITPFVIREARNGNDAAHEIMMQAGKELARITIDVYNKMQLDLLVSIAVSGSILRFVPEIYDEFKKCCEKSVGEVTFVLQSEPAVKGTYYLMKNMYFKK,not soluble
6,MASTARSLRYALAILTTSLVTPSVWAHAHLTHQYPAANAQVTAAPQAITLNFSEGVETGFSGAKITGPKNENIKTLPAKRNEQDQKQLIVPLADSLKPGTYTVDWHVVSVDGHKTKGHYTFSVK,soluble
7,MGSDKIHHHHHHMILSEVRIHNFRNIASTSLILNPNFNCITGPNGGGKTSLLEALYMLSCAHSFRSREITPIISYGQNQLNVFAHAYDESTISVQKSITDGTQIKLNNQFCCTTSQLAYALPCQVIYSDIFQIIDAGPSVRRSLLDWGLFHVKHDYLKIWKDYKRILSQRNALLKSRATYDHFIPWDQQLSQLANQLDKARNDYFLQWQPKFYQVLSDLTNISCTVEYYKGWDRKNAGQNMEELLQKSFDSDRKKLYTQYGPHQADLIISTEQYRVKHTLSRGQQKIILIALKLAQGQLLDKDCLYLIDDLAAELDDYHQRNLIKYLTQQKGQFVITNLINNNNYDILPIDSGLFEVNCGAIKNL,not soluble
8,SNAMTQSPIFLTPVFKEKIWGGTALRDRFGYSIPSESTGECWAISAHPKGPSTVANGPYKGKTLIELWEEHREVFGGVEGDRFPLLTKLLDVKEDTSIKVHPDDYYAGENEEGELGKTECWYIIDCKENAEIIYGHTARSKTELVTMINSGDWEGLLRRIKIKPGDFYYVPSGTLHALCKGALVLETQQNSDATYRVYDYDRLDSNGSPRELHFAKAVNAATVPHVDGYIDESTESRKGITIKTFVQGEYFSVYKWDINGEAEMAQDESFLICSVIEGSGLLKYEDKTCPLKKGDHFILPAQMPDFTIKGTCTLIVSHI,soluble
9,MGSDKIHHHHHHMENKPFIFGVATSGDNFTDREKETERLLLNFQHGVNTVLISPRRWGKTSLVQKACHLAQSDKLKVVYLDIFSCRSDRDFYDAFAAAILKQTSSKLDEWLENTKLFLSRISPKISIGTDPMTDFSISLEMNPQSNDVDEILQLPEKIAQKKGYNIVVCIDEFQQIAEFKDSKTFQKRLRSVWQLQKSVSYCLFGSKKHLMNELFEKKSLPFYKFGDAIYLPKIGTCDWINYICGRFEATGKQISKELAEKICQRVDNHSSYVQQLAWLVWIHTDKVATEQNFEEAYQDIIDQNTPLFEKQTESLTTYQMNFLRAILDGVHSEFTTQEILQKYKLGSSANVSIVKRALVKKELIEIEKRKVIIPDPVMKVWLKKELGGV,not soluble
10,MENSIRYISEHPTDFNGLLSLYESLGWNSLKLTVNELERMCKQSWYAIYVFDDKRLVGMGRVISDGVITGIICGVGVLPKYQSSGIGKEIVKRLIQHCEQNKVIPQLMCVEKLQSYYESIGFEAFSIGMTKHIIR,not soluble
11,GAMGKTVSQSQRLEHNWNKFFASFVPNLIKKNPQSKQFDHENIKQCAKDIVKILTTKELKKDSSRAPPDDLTKGKRHKVKEFINSYMDKIILKKKQKKALGLSS,soluble
12,MHKDIKIVDASAIVKPTGTPYVVYFSSISNNTHRFIEKLEFEHTRIPVNLDEQIEVNQEYVLFCPTYSGGGEYTSGAVPKQVIHFLNNKHNRDLCRGVISSGNTNFGNTFAIAGPILSKKLNVPLLYQFELLGTKNDVEQVQTIITNFFGKAK,soluble
13,MMKKILVACGTGMSTSTMIAQKLQDFLAEQGIAATTAQCCLNEIPLNCNGMDLIVTSMRTHSDYGIPTLNGAALLTGINDDALKQEIKALLTQ,not soluble
14,MGSDKIHHHHHHMSYLKISDTIVETFRFIHYEQSNFLNRLHGGDMLFFLVETGMISASKVAMGTTLLASLDDVVFKKPVRLGDIVKVRAKTVYIGNTSLEVEVRAFVRDEEVVSAYATYVKVDDLLRPTPVNVKIMAESEDDKRKIDEAKKRRENRLSKIVNRQKMRFYVDDITDGLRYRISNVIHVSPELTYDGRIMSAGKLLKLMDDLGGIICLRYLDHNSSNLYDNSFNAVVTVAVKGLAFYSPIRLNDIILIRAGLVYVGNTSADILINVVREDLNGAKEHVATAYFTYVRVDKDGKPIKIPEYTPVTEREKRLYEEALTRRGLRK,not soluble
15,SESSGGPTSSLAGTSRNTHVEDDDVVFIESVQPPICAPAIPNERNFVFASSKHENPPGTDSTISPSWRDLTSQKGNLCETIVIDDEGDTDTNGGEEKNPTDFIEWGPNGNKSSTKNVDFPIASLSRSKTKTAVGPFNPGRIDVTDAFQNGRFAVHHNPDSWISQSASFPRNQKQQGVDSLSPVASLPKQIFQPSNQQPTKPVKVTCANCKKPLQKGQTAYQRKGSAHLFCSTTCLSSFSHKRTRKTRNVMCKK,soluble
16,MKKIYKVLYPVGFQIFEVQDDYVVALPFVEEKPLENLVNEQSQFFNFSEQKWEEAVTQDYTKKLNLLENLANGLEVSNSELKQANEKLTAKAESLAQINSKTMLTSLQNTREIDAIKEQIGGAK,not soluble
17,MGSDKIHHHHHHDKLDLSPIDYYGSGSYWKTEAQATAYIDGIHKHLRDAAWQHTITFGELRGGRFITGASSDGMGVSNGDIILQNFDETHTGVSKFGDLFGRITNLNLFIARVTDATYLSDEMKNFYLGEVYGLRAFYYFDLYRIYGGVPLRLTADVVEGVIDPNKLYMARSTPKEVMTQIKSDLNKSMEYFGNMNDFDPYKRGKKVYWSKAATECLMGEVYLWTSKVTTGDDVANPADLTIAKTHLESVLNNYNLKMLDDFSQVFNAKNKANDEIIFAIRFLEGEATNSNGTFTYNVGTGSTKNRYQANGEVFGDALDIQNTGNQTYEYNKAVYQNFDDADTRKEATFIASYNKDGKTGELSLYGTHVRKNIGYVNAQGARVYCGDYIFYRLPWVYLTLAEIANMEGDNAAVAKYINLVRKRAYGNAWDETLYAYPETADFTTNELAILHEKDKEFIQEGQRWWDLRRMTLTKGGTPLVFCKEGSLLGDAPILNKSTEAHKLLWPIEKTMLNKDPALEQTPGYK,not soluble
18,GPTTPVPVSGSLEVKVNDWGSGAEYDVTLNLDGQYDWTVKVKLAPGATVGSFWSANKQEGNGYVIFTPVSWNKGPTATFGFIVNGPQGDKVEEITLEINGQVI,soluble
19,MDVDLASVEVVFAQKLACGEPATRQRALRVLHDWIRDQSAKKHFDDADLMRLCKGLHYVMWMQDKMILQEELADRIGGLINIFTSEEEKVRFVACFLKSLSKEWPHIDRWRMDKFLMEVRRMVRACFTHLAELKWKKDIRDEYWKVFQETTISTDKSFNEALKFHFASILLDELDAAGGLTKKQVTACLKPYIELLGNKDISEYLFTSLYEEIFKTILQQKSDLITAVEEGEEMDQGGIEFSYKEIGALLFEVGKQEHLNAKRRKKIYDLVKKFDKSSRGQDPLHFETPVPKERLTRHDYEEAEKKAIVLANSFKQERKSSRKVKSQIKKRAREAAEAARQENGDDVPDDEIAEVKKGNGKKTAVPKVKKGRPLLKAKGVGKKRMVGGLKRKAGKKN,not soluble
20,MPLLDLLRPVSDEELRVLSERNPGWQFERLADGRLIVSPTGGESGRIRAAVLGPLYRWNEARGLGVVFDASTGFKLPDGSVLAPDAAFLLGKRWQALSQEAREGFPPLAPDAVFEVRSRSQGLEELREKAAWYLANGVRLVVLLDPYLHRVEVFRPGGVEGHQGPERVPLDPGLPGFALETRGLFLP,soluble
21,MAELYYEDNRAYSYTQSFLKMFYLIFGQAYSRDYLSIDKYNKLCSNKDTKIHMPKLKIDEETNIVFFSKEEMQQLDNYFKGTNVETAYLLGKYCGLRINECFGLKWDKIDLKNGTITIDRQMQYQNGMIKLVPLKTRNAKRKIYMCSKLKEYFTNLMQQQEKYKTELAELRQQKQTLIKDIQGNTISSLELVNSMPIGRMQTVNAMKYHTRTLKEKYHIDFKYHYLRHTYGTTLATLNTPEHLLCNQMGHSSSSVTHKYYIGISKQGIDELLKNLERV,not soluble
22,SVERIYQKKTQLEHILLRPDTYIGSVELVTQQMWVYDEDVGINYREVTFVPGLYKIFDEILVNAADNKQRDPKMSCIRVTIDPENNLISIWNNGKGIPVVEHKVEKMYVPALIFGQLLTSSNYDDDEKKVTGGRNGYGAKLCNIFSTKFTVETASREYKKMFKQTWMDNMGRAGEMELKPFNGEDYTCITFQPDLSKFKMQSLDKDIVALMVRRAYDIAGSTKDVKVFLNGNKLPVKGFRSYVDMYLKDKLDETGNSLKVIHEQVNHRWEVCLTMSEKGFQQISFVNSIATSKGGRHVDYVADQIVTKLVDVVKKKNKGGVAVKAHQVKNHMWIFVNALIENPTFDSQTKENMTLQPKSFGSTCQLSEKFIKAAIGCGIVESILNWVKFKAQVQLNKKCS,soluble
